In PMC6131548:

Molecular target: Tsr2 (in the ITC with yeast ESS2) (S. cerevisiae (yeast)) (UniProt Q06672)
Experiment: ITC; VP-ITC; 20–40 µM Tsr2 variant in the cell, 400–800 µM ESS2 peptide in the syringe; 25 °C, 20 mM NaPi pH 7.1, 1 mM DTT, 10 µM EDTA

Binder: RPRFNRENKVSPADAAKKAL [ESS2 peptide]
- Kd: 700 nM
- stoichiometry N: 1
